These results are taken from paper PMC11283288 (Nature, 2024).

The term stoichiometry N denotes the number of molecules, sites or subunits per partner or assembly.

The series deals with the molecule itself. The series is described as follows: cryo-EM structure.

B1: Full-length GSDMD(D275A), C-terminal Flag, palmitoylated (natural protein, human, UniProt P57764 1-484, looked up)
chain: MGSAFERVVRRVVQELDHGGEFIPVTSLQSSTGFQPYCLVVRKPSSSWFWKPRYKCVNLSIKDILEPDAAEPDVQRGRSFHFYDAMDGQIQGSVELAAPGQAKIAGGAAVSDSSSTSMNVYSLSVDPNTWQTLLHERHLRQPEHKVLQQLRSRGDNVYVVTEVLQTQKEVEVTRTHKREGSGRFSLPGATCLQGEGQGHLSQKKTVTIPSGSTLAFRVAQLVIDSDLDVLLFPDKKQRTFQPPATGHKRSTSEGAWPQLPSGLSMMRCLHNFLTAGVPAEGAFTEDFQGLRAEVETISKELELLDRELCQLLLEGLEGVLRDQLALRALEEALEQGQSLGPVEPLDGPAGAVLECLVLSSGMLVPELAIPVVYLLGALTMLSETQHKLLAEALESQTLLGPLELVGSLLEQSAPWQERSTMSLPPGLLGNSWGEGAPAWVLLDECGLELGEDTPHVCWEPQAQGRMCALYASLALLSGLSQEPH
modifications: S-palmitoylation at Cys191
For B1, the “stoichiometry N” value came to 33.
